Reference: PMC12959268, “Mapping the nonribosomal specificity code through promiscuity-guided A-domain engineering” (Chemical Science, 2026)

How the values were obtained:
Experiment in all cases: MesG/hydroxylamine adenylation assay (pyrophosphate release)
Type in all cases: biochemical, Bacillus subtilis
Details in all cases: 5 mM ATP, 5 mM MgCl2, 150 mM hydroxylamine, pH 7.6, 30 °C
[1] = substrate: CC(C)C[C@H](N)C(=O)O
[2] = substrate: N[C@@H](Cc1ccccc1)C(=O)O
[3] = substrate: CSCC[C@H](N)C(=O)O

Protein | Km [1] [mM] | Km [2] [mM] | Km [3] [mM]
SrfAC (Bacillus subtilis subsp. subtilis str. 168) (protein, full module C-A-T-TE, C-terminal His6 tag, holo form, from pTrc99a-srfAC in E. coli HM0079) MSQFSKDQVQDMYYLSPMQEGMLFHAILNPGQSFYLEQITMKVKGSLNIKCLEESMNVIMDRYDVFRTVFIHEKVKRPVQVVLKKRQFHIEEIDLTHLTGSEQTAKINEYKEQDKIRGFDLTRDIPMRAAIFKKAEESFEWVWSYHHIILDGWCFGIVVQDLFKVYNALREQKPYSLPPVKPYKDYIKWLEKQDKQASLRYWREYLEGFEGQTTFAEQRKKQKDGYEPKELLFSLSEAETKAFTELAKSQHTTLSTALQAVWSVLISRYQQSGDLAFGTVVSGRPAEIKGVEHMVGLFINVVPRRVKLSEGITFNGLLKRLQEQSLQSEPHQYVPLYDIQSQADQPKLIDHIIVFENYPLQDAKNEESSENGFDMVDVHVFEKSNYDLNLMASPGDEMLIKLAYNENVFDEAFILRLKSQLLTAIQQLIQNPDQPVSTINLVDDREREFLLTGLNPPAQAHETKPLTYWFKEAVNANPDAPALTYSGQTLSYRELDEEANRIARRLQKHGAGKGSVVALYTKRSLELVIGILGVLKAGAAYLPVDPKLPEDRISYMLADSAAACLLTHQEMKEQAAELPYTGTTLFIDDQTRFEEQASDPATAIDPNDPAYIMYTSGTTGKPKGNITTHANIQGLVKHVDYMAFSDQDTFLSVSNYAFDAFTFDFYASMLNAARLIIADEHTLLDTERLTDLILQENVNVMFATTALFNLLTDAGEDWMKGLRCILFGGERASVPHVRKALRIMGPGKLINCYGPTEGTVFATAHVVHDLPDSISSLPIGKPISNASVYILNEQSQLQPFGAVGELCISGMGVSKGYVNRADLTKEKFIENPFKPGETLYRTGDLARWLPDGTIEYAGRIDDQVKIRGHRIELEEIEKQLQEYPGVKDAVVVADRHESGDASINAYLVNRTQLSAEDVKAHLKKQLPAYMVPQTFTFLDELPLTTNGKVNKRLLPKPDQDQLAEEWIGPRNEMEETIAQIWSEVLGRKQIGIHDDFFALGGHSLKAMTAASRIKKELGIDLPVKLLFEAPTIAGISAYLKNGGSDGLQDVTIMNQDQEQIIFAFPPVLGYGLMYQNLSSRLPSYKLCAFDFIEEEDRLDRYADLIQKLQPEGPLTLFGYSAGCSLAFEAAKKLEEQGRIVQRIIMVDSYKKQGVSDLDGRTVESDVEALMNVNRDNEALNSEAVKHGLKQKTHAFYSYYVNLISTGQVKADIDLLTSGADFDMPEWLASWEEATTGVYRVKRGFGTHAEMLQGETLDRNAEILLEFLNTQTVTVS | 0.013 ± 0.001 |  | 
SrfAC (Bacillus subtilis subsp. subtilis str. 168; A660V/C752A/F702S) (protein, full module C-A-T-TE, C-terminal His6 tag, holo form, from pTrc99a-srfAC in E. coli HM0079) MSQFSKDQVQDMYYLSPMQEGMLFHAILNPGQSFYLEQITMKVKGSLNIKCLEESMNVIMDRYDVFRTVFIHEKVKRPVQVVLKKRQFHIEEIDLTHLTGSEQTAKINEYKEQDKIRGFDLTRDIPMRAAIFKKAEESFEWVWSYHHIILDGWCFGIVVQDLFKVYNALREQKPYSLPPVKPYKDYIKWLEKQDKQASLRYWREYLEGFEGQTTFAEQRKKQKDGYEPKELLFSLSEAETKAFTELAKSQHTTLSTALQAVWSVLISRYQQSGDLAFGTVVSGRPAEIKGVEHMVGLFINVVPRRVKLSEGITFNGLLKRLQEQSLQSEPHQYVPLYDIQSQADQPKLIDHIIVFENYPLQDAKNEESSENGFDMVDVHVFEKSNYDLNLMASPGDEMLIKLAYNENVFDEAFILRLKSQLLTAIQQLIQNPDQPVSTINLVDDREREFLLTGLNPPAQAHETKPLTYWFKEAVNANPDAPALTYSGQTLSYRELDEEANRIARRLQKHGAGKGSVVALYTKRSLELVIGILGVLKAGAAYLPVDPKLPEDRISYMLADSAAACLLTHQEMKEQAAELPYTGTTLFIDDQTRFEEQASDPATAIDPNDPAYIMYTSGTTGKPKGNITTHANIQGLVKHVDYMAFSDQDTFLSVSNYAFDVFTFDFYASMLNAARLIIADEHTLLDTERLTDLILQENVNVMSATTALFNLLTDAGEDWMKGLRCILFGGERASVPHVRKALRIMGPGKLINAYGPTEGTVFATAHVVHDLPDSISSLPIGKPISNASVYILNEQSQLQPFGAVGELCISGMGVSKGYVNRADLTKEKFIENPFKPGETLYRTGDLARWLPDGTIEYAGRIDDQVKIRGHRIELEEIEKQLQEYPGVKDAVVVADRHESGDASINAYLVNRTQLSAEDVKAHLKKQLPAYMVPQTFTFLDELPLTTNGKVNKRLLPKPDQDQLAEEWIGPRNEMEETIAQIWSEVLGRKQIGIHDDFFALGGHSLKAMTAASRIKKELGIDLPVKLLFEAPTIAGISAYLKNGGSDGLQDVTIMNQDQEQIIFAFPPVLGYGLMYQNLSSRLPSYKLCAFDFIEEEDRLDRYADLIQKLQPEGPLTLFGYSAGCSLAFEAAKKLEEQGRIVQRIIMVDSYKKQGVSDLDGRTVESDVEALMNVNRDNEALNSEAVKHGLKQKTHAFYSYYVNLISTGQVKADIDLLTSGADFDMPEWLASWEEATTGVYRVKRGFGTHAEMLQGETLDRNAEILLEFLNTQTVTVS | 0.510 ± 0.050 | 1.3 ± 0.1 | 4.6 ± 0.9
